Results published in patent US9176064B2, “Bisubstrate fluorescent probes for protein kinase CK2” (University of Tartu, priority 2012, dated 2015).
Where a SMILES comes first, the peptide text is derived from it. [ ]: non-standard residue; d: D form. The star is where a group is joined. X1 = O=C(CCCCCCCn1cnc2c(Br)c(Br)c(Br)c(Br)c21)*

Columns and labels:
Test in all cases: Kinase panel residual activity
Type in all cases: biochemical
Details in all cases: compound at 1 micromolar
JNK1 = JNK1 (Homo sapiens, UniProt P45983)
Sequence of JNK1 (P45983 whole entry, species assumed): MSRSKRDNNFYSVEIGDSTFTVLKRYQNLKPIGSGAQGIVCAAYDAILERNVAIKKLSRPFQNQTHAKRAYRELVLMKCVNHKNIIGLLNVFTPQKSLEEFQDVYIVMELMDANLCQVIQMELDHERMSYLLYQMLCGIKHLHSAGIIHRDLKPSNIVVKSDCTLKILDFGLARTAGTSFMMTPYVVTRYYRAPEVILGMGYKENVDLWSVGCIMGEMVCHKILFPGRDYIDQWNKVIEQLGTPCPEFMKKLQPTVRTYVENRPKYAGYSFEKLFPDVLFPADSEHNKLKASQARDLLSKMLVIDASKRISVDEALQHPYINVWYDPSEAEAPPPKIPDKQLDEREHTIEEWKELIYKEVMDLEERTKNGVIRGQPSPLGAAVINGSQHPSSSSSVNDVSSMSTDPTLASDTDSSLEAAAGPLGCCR

TSSK1 = target: T1, TSSK1 (Homo sapiens, UniProt Q9BXA7)
T1 sequence (Q9BXA7 1-367): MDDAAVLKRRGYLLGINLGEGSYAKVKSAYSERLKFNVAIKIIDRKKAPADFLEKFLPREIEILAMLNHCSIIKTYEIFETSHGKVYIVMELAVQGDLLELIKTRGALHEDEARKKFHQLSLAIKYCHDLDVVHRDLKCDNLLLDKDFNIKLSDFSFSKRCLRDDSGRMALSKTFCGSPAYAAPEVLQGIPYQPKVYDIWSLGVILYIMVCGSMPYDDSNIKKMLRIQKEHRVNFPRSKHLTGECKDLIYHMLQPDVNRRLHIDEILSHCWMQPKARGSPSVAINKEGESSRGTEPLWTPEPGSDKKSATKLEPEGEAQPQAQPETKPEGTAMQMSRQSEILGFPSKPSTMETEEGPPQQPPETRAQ

MARK2 = MARK2 (Homo sapiens, UniProt Q7KZI7)
Sequence of MARK2 (Q7KZI7 whole entry, species assumed): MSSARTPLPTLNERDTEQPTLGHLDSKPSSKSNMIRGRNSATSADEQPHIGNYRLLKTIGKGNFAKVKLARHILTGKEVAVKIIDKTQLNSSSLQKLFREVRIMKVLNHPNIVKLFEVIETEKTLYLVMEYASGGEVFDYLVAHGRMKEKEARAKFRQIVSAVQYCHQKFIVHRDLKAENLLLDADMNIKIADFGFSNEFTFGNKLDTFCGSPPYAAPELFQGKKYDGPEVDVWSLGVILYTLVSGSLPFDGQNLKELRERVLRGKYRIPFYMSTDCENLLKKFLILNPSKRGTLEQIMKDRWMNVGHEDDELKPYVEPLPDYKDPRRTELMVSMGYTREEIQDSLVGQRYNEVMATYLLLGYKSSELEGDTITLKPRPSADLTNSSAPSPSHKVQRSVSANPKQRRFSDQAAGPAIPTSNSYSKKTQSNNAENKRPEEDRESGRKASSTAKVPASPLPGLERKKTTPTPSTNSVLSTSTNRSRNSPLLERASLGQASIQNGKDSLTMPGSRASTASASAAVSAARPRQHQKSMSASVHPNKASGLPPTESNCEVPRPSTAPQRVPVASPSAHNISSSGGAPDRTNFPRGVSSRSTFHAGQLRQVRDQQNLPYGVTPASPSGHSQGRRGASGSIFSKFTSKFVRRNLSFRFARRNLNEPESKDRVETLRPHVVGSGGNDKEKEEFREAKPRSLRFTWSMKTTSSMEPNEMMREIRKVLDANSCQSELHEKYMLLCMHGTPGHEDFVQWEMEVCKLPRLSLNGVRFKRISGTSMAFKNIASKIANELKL

DAPK1 = DAPK1 (Homo sapiens, UniProt P53355)
Sequence of DAPK1 (P53355 whole entry, species assumed): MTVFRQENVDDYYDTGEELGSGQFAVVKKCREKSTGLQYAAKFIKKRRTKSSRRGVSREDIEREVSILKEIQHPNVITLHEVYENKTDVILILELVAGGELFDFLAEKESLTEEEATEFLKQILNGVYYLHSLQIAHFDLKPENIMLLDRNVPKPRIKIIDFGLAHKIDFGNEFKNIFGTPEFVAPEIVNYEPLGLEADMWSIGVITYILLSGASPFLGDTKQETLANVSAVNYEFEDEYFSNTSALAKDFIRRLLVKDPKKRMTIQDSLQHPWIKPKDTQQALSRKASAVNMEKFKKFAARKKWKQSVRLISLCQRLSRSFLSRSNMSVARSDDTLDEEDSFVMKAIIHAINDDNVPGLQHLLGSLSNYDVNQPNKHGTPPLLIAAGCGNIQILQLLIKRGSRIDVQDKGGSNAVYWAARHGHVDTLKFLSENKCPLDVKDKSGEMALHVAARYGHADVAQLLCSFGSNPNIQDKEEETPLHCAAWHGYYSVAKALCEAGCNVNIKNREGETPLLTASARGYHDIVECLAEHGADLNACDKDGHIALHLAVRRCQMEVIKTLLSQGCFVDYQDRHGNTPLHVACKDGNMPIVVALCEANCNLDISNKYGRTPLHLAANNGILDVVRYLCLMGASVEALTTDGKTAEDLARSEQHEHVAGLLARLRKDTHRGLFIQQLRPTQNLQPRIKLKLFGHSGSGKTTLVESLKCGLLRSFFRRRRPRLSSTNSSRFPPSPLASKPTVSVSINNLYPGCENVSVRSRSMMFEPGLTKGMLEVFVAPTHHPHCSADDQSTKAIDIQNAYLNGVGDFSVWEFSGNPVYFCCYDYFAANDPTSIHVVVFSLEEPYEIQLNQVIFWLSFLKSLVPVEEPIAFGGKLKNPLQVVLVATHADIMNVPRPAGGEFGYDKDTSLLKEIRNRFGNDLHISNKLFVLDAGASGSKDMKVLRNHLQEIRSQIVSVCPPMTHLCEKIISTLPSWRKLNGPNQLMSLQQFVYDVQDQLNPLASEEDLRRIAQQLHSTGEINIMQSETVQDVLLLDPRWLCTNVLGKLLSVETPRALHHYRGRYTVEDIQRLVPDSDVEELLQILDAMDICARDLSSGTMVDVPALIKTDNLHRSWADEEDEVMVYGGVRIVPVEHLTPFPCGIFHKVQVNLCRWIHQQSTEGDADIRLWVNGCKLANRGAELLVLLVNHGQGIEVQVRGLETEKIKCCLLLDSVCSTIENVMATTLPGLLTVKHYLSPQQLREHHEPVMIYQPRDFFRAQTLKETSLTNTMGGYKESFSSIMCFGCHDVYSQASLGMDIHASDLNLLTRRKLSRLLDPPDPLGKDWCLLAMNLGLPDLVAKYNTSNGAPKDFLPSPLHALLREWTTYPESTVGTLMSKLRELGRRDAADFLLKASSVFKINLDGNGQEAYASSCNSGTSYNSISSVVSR

TBK1 = target: T2, TBK1 (Homo sapiens, UniProt Q9UHD2)
T2 sequence (Q9UHD2 1-729): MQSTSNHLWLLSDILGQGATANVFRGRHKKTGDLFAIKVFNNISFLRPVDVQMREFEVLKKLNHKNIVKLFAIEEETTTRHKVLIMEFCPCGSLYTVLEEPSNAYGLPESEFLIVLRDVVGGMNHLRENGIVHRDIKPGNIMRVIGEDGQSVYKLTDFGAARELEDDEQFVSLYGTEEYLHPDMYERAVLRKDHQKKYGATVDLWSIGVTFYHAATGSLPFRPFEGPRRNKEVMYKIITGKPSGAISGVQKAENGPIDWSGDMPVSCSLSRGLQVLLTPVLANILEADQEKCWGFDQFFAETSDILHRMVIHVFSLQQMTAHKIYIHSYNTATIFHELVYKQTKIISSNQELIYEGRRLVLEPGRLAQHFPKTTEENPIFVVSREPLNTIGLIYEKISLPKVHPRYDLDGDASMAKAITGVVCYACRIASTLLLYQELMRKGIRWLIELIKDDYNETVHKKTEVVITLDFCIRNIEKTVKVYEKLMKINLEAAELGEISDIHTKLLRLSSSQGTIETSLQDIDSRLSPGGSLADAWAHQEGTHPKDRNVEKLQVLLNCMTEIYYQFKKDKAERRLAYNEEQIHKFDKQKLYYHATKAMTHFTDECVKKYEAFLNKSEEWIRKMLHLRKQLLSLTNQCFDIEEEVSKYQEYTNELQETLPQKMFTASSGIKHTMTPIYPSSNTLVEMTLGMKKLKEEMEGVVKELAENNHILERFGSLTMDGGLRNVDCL

EIF2AK3 = target: T3, EIF2AK3 (Homo sapiens, UniProt Q9NZJ5)
T3 sequence (Q9NZJ5 30-1116): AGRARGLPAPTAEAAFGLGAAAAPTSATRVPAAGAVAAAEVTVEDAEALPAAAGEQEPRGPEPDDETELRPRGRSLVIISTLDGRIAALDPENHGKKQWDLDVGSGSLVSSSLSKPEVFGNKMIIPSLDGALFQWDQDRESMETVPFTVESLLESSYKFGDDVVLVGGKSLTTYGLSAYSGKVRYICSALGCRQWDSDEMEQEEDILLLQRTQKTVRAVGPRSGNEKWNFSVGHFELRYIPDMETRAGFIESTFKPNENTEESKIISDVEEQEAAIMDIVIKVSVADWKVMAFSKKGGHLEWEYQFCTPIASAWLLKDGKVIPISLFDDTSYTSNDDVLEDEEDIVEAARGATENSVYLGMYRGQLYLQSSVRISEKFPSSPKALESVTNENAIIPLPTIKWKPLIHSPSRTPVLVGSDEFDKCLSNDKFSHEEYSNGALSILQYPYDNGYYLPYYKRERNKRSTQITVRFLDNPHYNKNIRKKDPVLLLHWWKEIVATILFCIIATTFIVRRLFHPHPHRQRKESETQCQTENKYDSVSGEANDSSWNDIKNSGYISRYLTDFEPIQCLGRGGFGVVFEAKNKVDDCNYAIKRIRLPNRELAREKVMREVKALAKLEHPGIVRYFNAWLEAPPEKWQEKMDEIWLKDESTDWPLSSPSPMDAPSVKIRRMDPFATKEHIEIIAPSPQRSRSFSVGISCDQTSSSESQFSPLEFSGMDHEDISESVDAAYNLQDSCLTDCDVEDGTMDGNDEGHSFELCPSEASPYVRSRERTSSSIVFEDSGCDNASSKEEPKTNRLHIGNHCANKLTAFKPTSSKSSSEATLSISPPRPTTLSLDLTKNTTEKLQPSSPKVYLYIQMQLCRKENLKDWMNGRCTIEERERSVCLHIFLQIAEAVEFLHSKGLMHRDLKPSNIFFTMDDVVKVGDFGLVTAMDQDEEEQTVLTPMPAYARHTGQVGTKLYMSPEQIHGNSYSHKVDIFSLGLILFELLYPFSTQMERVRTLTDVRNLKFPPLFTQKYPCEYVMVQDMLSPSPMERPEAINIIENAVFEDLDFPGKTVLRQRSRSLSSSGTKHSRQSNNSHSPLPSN

p38d MAPK = target: T4, p38d MAPK (Homo sapiens, UniProt O15264)
T4 sequence (O15264 1-365): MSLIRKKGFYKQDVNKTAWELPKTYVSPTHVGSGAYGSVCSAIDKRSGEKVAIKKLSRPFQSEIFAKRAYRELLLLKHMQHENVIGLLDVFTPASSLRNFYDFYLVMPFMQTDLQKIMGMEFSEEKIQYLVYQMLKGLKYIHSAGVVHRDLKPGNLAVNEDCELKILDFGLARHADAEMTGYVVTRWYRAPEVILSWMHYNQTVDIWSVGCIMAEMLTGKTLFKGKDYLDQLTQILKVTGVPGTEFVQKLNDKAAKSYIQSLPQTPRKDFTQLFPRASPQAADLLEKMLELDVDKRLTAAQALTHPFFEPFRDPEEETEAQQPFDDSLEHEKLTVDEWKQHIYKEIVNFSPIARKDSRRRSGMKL

MEKK1 = MEKK1 (Homo sapiens, UniProt Q13233)
Sequence of MEKK1 (Q13233 whole entry, species assumed): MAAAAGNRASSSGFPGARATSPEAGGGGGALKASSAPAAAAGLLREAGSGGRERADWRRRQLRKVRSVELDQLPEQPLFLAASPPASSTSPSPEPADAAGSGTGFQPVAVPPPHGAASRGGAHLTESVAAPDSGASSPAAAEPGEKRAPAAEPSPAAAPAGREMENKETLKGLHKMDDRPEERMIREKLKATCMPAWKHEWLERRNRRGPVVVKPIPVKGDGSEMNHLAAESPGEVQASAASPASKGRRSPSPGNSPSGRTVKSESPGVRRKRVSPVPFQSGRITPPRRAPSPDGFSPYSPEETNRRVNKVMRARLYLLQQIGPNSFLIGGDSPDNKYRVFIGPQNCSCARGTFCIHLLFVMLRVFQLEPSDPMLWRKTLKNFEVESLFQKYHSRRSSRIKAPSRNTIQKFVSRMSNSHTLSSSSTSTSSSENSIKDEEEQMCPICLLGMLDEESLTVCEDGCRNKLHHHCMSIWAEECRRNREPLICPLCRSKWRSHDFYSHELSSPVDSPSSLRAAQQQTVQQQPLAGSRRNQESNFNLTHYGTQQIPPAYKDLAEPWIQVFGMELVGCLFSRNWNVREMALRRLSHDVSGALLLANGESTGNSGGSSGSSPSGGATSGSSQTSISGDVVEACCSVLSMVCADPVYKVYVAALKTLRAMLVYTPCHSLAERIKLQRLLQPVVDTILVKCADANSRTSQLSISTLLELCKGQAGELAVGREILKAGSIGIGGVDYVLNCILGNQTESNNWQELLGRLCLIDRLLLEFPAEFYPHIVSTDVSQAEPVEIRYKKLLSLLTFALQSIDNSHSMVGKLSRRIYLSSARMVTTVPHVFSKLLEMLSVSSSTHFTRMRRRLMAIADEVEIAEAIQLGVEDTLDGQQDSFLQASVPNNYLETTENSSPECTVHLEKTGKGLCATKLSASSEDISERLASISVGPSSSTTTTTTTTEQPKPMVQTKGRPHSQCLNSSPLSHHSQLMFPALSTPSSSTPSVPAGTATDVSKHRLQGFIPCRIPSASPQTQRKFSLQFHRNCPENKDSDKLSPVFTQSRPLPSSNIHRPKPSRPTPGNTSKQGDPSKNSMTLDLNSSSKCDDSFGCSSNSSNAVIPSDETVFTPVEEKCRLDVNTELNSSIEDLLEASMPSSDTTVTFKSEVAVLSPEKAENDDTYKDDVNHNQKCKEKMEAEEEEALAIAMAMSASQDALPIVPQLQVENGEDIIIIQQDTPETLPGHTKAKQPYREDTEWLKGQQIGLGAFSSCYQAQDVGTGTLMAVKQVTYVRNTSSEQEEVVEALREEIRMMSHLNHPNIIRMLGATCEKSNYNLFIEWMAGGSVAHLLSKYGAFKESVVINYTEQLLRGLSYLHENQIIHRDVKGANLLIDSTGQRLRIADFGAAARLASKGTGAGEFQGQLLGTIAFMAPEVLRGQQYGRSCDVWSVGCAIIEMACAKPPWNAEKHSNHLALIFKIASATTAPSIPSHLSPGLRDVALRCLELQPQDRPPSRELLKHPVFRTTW

NCCCC[C@H](NC(=O)[C@H](CC(=O)O)NC(=O)[C@H](CC(=O)O)NC(=O)[C@H](CC(=O)O)NC(=O)[C@H](CC(=O)O)NC(=O)[C@H](CC(=O)O)NC(=O)[C@@H](CC(=O)O)NC(=O)CCCCCCCn1cnc2c(Br)c(Br)c(Br)c(Br)c21)C(=O)O [TBBI-OcA-(D-Asp)-(L-Asp)5-(L-Lys)-OH] (X1-[dD]DDDDDK-OH)
remaining activity at 1 µM (JNK1): 103%
remaining activity at 1 µM (TSSK1): 86%
remaining activity at 1 µM (MARK2): 66%
remaining activity at 1 µM (DAPK1): 84%
remaining activity at 1 µM (TBK1): 93%
remaining activity at 1 µM (EIF2AK3): 71%
remaining activity at 1 µM (p38d MAPK): 93%
remaining activity at 1 µM (MEKK1): 95%
